This is an account of results in the DeepSol protein solubility set.

A short description of this data set: soluble on expression in E. coli; label from the status in PepcDB or PDB records.
For the sequence “MSLRIEEIRRYHESLMVELDRIYRIAEAARKKGLDPELSVEIPIAKNMAERVEKLMNLQGLAKRIMELEEGGLSRELICFKVADEIVEGKFGEMPKEEAIDKAVRTAVAIMTEGVVAAPIEGIARVRIDRENFLRVYYAGPIRSAGGTAQVISVLVADYVRRKAEIGRYVPTEEEILRYCEEIPLYKKVANLQYLPSDEEIRLIVSNCPICIDGEPTESAEVSGYRNLPRVETNRVRGGMALVIAEGIALKAPKLKKMVDEVGIEGWEWLDALIKGEGHHHHHH”, the “soluble on expression in E. coli” value is recorded as “soluble”.

Regarding “MSLGEQTTISDSKGLFHKEFPYVIPPVYRKVLDEYLVELNLLSNQSNFKIDTIFSYGLIISFERFTVGYEPDSHISKILESLCNSCNIDIKAIKEYSNNIKKLINEKGIKEIINILTAEIKKSVGGIALSNQSGKDKYYSRLHAIGIYELISNINEDKKEGDDKEIISECVEALGFSKDRVEKDINQYKNSMEKIKEMMELIKLTVEETKRKAKLNEGHHHHHH”, the “soluble on expression in E. coli” value is “soluble”. With “MSLQVTDVEIAQYYQDNKAQFMTQHLAHIQFANEQDAKVAYEELQKGANFADVAKAKSLDKISGENGGDLGWVNENELPKAFEDAAAALQVGQYSQPINVDGNYHIVLVQERKAQSLENVKAQIADLVRKSLMESRYFSLEKQASDKAFEDSKSLNTAAQAAGVKVQESDYFSRQNVPAGLNFPNVIYTIFESDTTNVGMNSEPINVGDYHTIIVRVLDRKAEGVKSLEEAKIDIETFLKRQKAENALNGKAQQAVKKLSENPESKVDGINFSSEQTFTLSENKDPILTNGIFSIAKPESSKALYQVVHNSNGDVVVVALNKVEQGSLSEKELSQFAMQLLRSHQSELQVQLIQGLRERAKIEVNDSFINQDDEAQEGHHHHHH”, the “soluble on expression in E. coli” value is listed as “soluble”. With “MMEDGAEGEIGDMLSMCNKHPFFDDDDSERFVILYKICTVFDEPVEGKQPSSAVIVYEELAKSGGYCCRPSKMEESYVKVDQVVQEMAKITSKCAIHLSSHALKNTIQIVRTAFSGEYTQNDKDGNVPEGNEVKFDGDETVMKTTVNCEKLVEDINEFMEEDRQMYGALEIQIMEESERNIDGYAYFSFLKFVPCGNIHLRIPPLEGSCTKEVINEVIETIMRNFWNYCGDS”, the “soluble on expression in E. coli” value was “not soluble”. As for “MGSSHHHHHHSSGLVPRGSHMASAASYPPIKNTKVGLALSSHPLASEIGQKVLEEGGNAIDAAVAIGFALAVVHPAAGNIGGGGFAVIHLANGENVALDFREKAPLKATKNMFLDKQGNVVPKLSEDGYLAAGVPGTVAGMEAMLKKYGTKKLSQLIDPAIKLAENGYAISQRQAETLKEARERFLKYSSSKKYFFKKGHLDYQEGDLFVQKDLAKTLNQIKTLGAKGFYQGQVAELIEKDMKKNGGIITKEDLASYNVKWRKPVVGSYRGYKIISMSPPSSGGTHLIQILNVMENADLSALGYGASKNIHIAAEAMRQAYADRSVYMGDADFVSVPVDKLINKAYAKKIFDTIQPDTVTPSSQIKPGMGQLHEGSN”, the “soluble on expression in E. coli” value is recorded as “soluble”. In the case of “MTDNARKEYLNQFFGSKRYLYQDNERVAHIHVVNGTYYFHGHIVPGWQGVKKTFDTAEELETYIKQQDLEYEEQKQLTLFLEHHHHHH”, the “soluble on expression in E. coli” value was “not soluble”. Take “MAEEEVGNSQRQSEEIEAMAAIYGEEWCVIDENAKIFCIRVTDFMDDPKWTLCLQVMLPSEYPGTAPPSYQLNAPWLKGQERADLSNSLEEIYVHNMGESILYQWVEKIRDALIQKSQITEPDPDVKKKTEEVEVESEEDPILEHPPENPVKTLDLKISEETQPETEELPPVAHGVPITDRRSTFQAHVAPVVCPEQVKLVLAKLYENKKIASATHNIYAYRIFCEDKQTFLQDCEDDGETAAGGRLLHLMEILNVKNVMVVVSRWYGGILLGPDRFKHINNCARNILVEKNFTNTPDESTKNLGKKKVKKDKKKNDH”: the “soluble on expression in E. coli” value is on record as “soluble”.

For the sequence “EECQVRVGDLTVAKTRGQLTDAAPIGPVTVQALGCNARQVALKADTDNFEQGKFFLISDNNRDKLYVNIRPMDNSAWTTDNGVFYKNDVGSWGGTIGIYVDGQQTNTPPGNYTLTLTGGYWAKDNKQGFTPSGTTGTTKLTVT”, the “soluble on expression in E. coli” value is “soluble”. With “MGSPLPFRLTCVWAGEPSMKKAIIFDCEFLCLEGSQRRFWCAAHDPDPVIAQIGAVKLGLEGGFPLLETYKVLISPVDRHGRRYAIDPFFTRLTGITEENIEAEGVPLQDALSSFDSFSEGAQCWSWGKDELNMMAISTYVAGIQPPMPACRFDNAVRLLLAAGMPVEDLAKTPSNSLADYYGVAHPPLQGHDALGDALSVSYALQHLLRSGKLKPEEFTLAA”, the “soluble on expression in E. coli” value was “soluble”.
